Assay results reported in patent publication US20120232127A1, “REGULATION OF NEUROTRANSMITTER RELEASE THROUGH ANION CHANNELS” (KOREA INSTITUTE OF SCIENCE AND TECHNOLOGY, priority 2008, published 2012).

Columns and labels:
[1] = test system: astrocytic CAAC / mBest1 channel (glutamate release); assay: Sniffer patch: astrocyte to GluR1 (L497Y)-expressing HEK293T cell pairs, TFLLR-induced glutamate release; assay type: cell-based, mouse; conditions: relative to scrambled shRNA
Experimental: (§1) The sniffer patch technique, which is used for determining whether or not one is permeable to glutamate, was performed as described in Lee, C. J. et al. Astrocytic control of synaptic NMDA receptors. J Physiol 581, 1057-81 (2007), which is hereby incorporated by reference for all purposes as if fully set forth herein.
(§2) 2. In experiments using astrocyte-HEK293T cell pairs, the sniffer patch techniques used naïve, scrambled- or mBest1-specific shRNA expressing (with GFP) astrocytes as a glutamate source; and GluR1 (L497Y) expressing HEK293T cells (with DsRED) as a detector. After obtaining gigaohm sealing, GluR1 (L497Y)-expressing cell was firstly ruptured, and then counterpart astrocytes were pressure-applied with 500 uM of TFLLR to evoke an increase in astrocytic intracellular Ca^2+ and resulting glutamate release onto the adjacent HEK293T cells.
(§3) GluR1LY-expressing detector cells were patched with the pipette solution pH 7.3 containing 110 mM CsGluconate, 30 mM CsCl, 5 mM HEPES, 4 mM NaCl, 2 mM MgCl2, 5 mM EGTA, and 1 mM CaCl2. The percentage of GluR1 (L497Y)-mediated current to the full activation level was analyzed by dividing the current amplitude of GluR1 (L497Y) current obtained through sniffer patch measurement by that of fully activated GluR1 (L497Y) current in the same cells.
(§4) The glutamate release through astrocytic CAACs was examined by using “sniffer-patch” technique and recording real-time glutamate release from cultured astrocytes (FIG. 10a). Using this technique, the present inventors observed that TFLLR-induced astrocytic glutamate release into an adjacent HEK293T cells expressing the non-desensitizing AMPA receptor subunit GluR1 (L497Y) mutant evoked an inward current sensitive to AMPA receptor antagonists, which is interpreted to reflect release of glutamate. The effects of TFLLR on current responses in transfected HEK293T cells was blocked by the treatment of niflumic acid (% block by niflumic acid=66.6±5.7%, FIGS. 10d to 10f), which is consistent with the idea that astrocytic CAAC is permeable to glutamate.

[2] = molecular target: T1, astrocytic CAAC / mBest1 channel (glutamate release) (Mus musculus, UniProt O88870, R255K); assay: as above; assay type: cell-based; conditions: sniffer patch, lentiviral shRNA expressing astrocytes, TFLLR
T1 construct: endogenous in cells; host or cells: cultured mouse cortical astrocytes
T1 sequence (O88870 1-551 R255K): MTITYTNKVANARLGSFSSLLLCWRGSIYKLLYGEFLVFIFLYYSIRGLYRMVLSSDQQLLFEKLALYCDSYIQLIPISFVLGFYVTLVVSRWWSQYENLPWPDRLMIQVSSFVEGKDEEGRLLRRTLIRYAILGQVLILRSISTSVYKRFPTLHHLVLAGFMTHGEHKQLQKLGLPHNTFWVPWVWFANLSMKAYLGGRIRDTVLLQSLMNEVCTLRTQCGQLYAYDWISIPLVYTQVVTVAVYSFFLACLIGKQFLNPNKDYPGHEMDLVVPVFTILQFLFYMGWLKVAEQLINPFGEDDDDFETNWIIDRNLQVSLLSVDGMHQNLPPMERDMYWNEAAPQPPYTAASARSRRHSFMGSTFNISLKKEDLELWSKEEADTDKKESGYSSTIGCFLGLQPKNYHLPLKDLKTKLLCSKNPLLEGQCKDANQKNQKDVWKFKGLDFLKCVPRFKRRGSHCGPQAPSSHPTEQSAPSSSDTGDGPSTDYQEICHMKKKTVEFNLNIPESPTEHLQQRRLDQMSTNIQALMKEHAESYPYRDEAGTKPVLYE
Experimental: as §1, §2, §3, §4

B1: mBest1 shRNA: mBest1-specific short hairpin RNA, SEQ ID NO: 3 and 4 (lentiviral: SEQ ID NO: 30), nucleotides 563-582 of mBest1 (nucleic acid)
chain 1: GATCCCCTTGCCAACTTGTCAATGAATTCAAGAGATTCATTGACAAGTTGGCAATTTTTA
chain 2: GGGAACGGTTGAACAGTTACTTAAGTTCTCTAAGTAACTGTTCAACCGTTAAAAATTCGA
[1]
  remaining component of glutamate release from astrocytes by mBest1 knock-down: about 33%
[2]
  percentage of GluR1 (L497Y)-mediated current to the fully activated GluR1 (L497Y) current by 1 mM glutamate: 4.2±1.2%
